From patent publication US20220185871A1

Target: Man9-V3 glycopeptide
Test: BLI (Octet Red96), biotinylated Man9-V3 on streptavidin sensors, antibody in solution, bivalent avidity model

| Substance | Kd |
| --- | --- |
| DH270.1 (antibody) | 331 nM |
| DH270.6 (antibody) | 188 nM |
